In assay [1] the target is recombinant human OX40:mFc fusion protein (Alexis Corporation) (human) (UniProt P43489). Nature of the assay: cross-blocking ELISA, hOX40:mFc pre-incubated with L106; competitor: coated 112Y131. In general terms: An ELISA detects its analyte on a solid surface through an enzyme-linked reagent.
Assay [2] addresses human OX40 extracellular domain fused to the Fc portion of human IgG1 (hOX40:hFc) (human). Nature of the assay: ELISA, OX40L-FLAG binding to coated hOX40:hFc.
Assay [3] shares this target. Nature of the assay: ELISA, blocking of OX40L-FLAG binding to coated hOX40:hFc.
Assay [4] has as its target recombinant human OX40:mFc fusion protein (Alexis Corporation) (human) (UniProt P43489). Nature of the assay: cross-blocking ELISA, hOX40:mFc pre-incubated with L106; competitor: coated 112V8.
For assay [5], the target named is human OX40 (CD134), full length, expressed on cells (activated human T cells; EL4-OX40 and CHO-OX40 transfectants) (human) (UniProt P43489). In words: flow cytometry, blocking of OX40L-FLAG binding to activated human T cells. In general terms: Flow cytometry measures light scatter and fluorescence of single cells or particles in a stream.
For assay [6] the target is unchanged. Nature of the assay: flow cytometry titration on activated human T cells.
For assay [7] the target is unchanged. Nature of the assay: flow cytometry, OX40L-FLAG binding to activated human T cells.

Chain of human OX40 (CD134), full length, expressed on cells (activated human T cells; EL4-OX40 and CHO-OX40 transfectants) (human) (P43489 29-277 limits assumed): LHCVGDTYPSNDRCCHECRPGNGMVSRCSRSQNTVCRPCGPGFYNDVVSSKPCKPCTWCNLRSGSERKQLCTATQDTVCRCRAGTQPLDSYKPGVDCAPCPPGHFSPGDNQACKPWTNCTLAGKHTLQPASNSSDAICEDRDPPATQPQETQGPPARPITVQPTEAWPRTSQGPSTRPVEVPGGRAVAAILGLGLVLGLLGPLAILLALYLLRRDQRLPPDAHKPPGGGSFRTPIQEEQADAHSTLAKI
Chain of recombinant human OX40:mFc fusion protein (Alexis Corporation) (human) (P43489 29-214): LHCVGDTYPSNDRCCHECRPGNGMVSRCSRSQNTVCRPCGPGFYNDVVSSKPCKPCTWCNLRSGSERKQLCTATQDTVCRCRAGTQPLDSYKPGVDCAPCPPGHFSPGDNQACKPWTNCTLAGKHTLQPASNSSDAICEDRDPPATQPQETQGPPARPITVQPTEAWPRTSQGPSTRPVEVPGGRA
Chain of human OX40 extracellular domain fused to the Fc portion of human IgG1 (hOX40:hFc) (human) (chain, as listed by the source limits assumed): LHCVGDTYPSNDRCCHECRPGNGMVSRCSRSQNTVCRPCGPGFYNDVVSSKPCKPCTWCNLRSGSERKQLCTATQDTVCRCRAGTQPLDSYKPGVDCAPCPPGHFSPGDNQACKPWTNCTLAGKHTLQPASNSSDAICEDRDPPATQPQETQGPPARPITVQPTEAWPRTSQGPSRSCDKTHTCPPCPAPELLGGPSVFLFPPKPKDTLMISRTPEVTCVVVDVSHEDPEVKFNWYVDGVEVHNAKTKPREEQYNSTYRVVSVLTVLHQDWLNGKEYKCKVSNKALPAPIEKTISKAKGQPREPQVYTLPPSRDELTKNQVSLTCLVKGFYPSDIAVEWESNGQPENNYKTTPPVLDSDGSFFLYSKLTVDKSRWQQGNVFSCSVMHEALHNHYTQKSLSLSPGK

In general, IC50 refers to the midpoint of a concentration-inhibition curve. Usually Kd stands for the free concentration of one partner at which half of the binding sites on the other are occupied at equilibrium, for simple one-to-one binding. The low end stands for a tighter complex, the high end for a looser complex. In the case of “mouse anti-human OX40 antibody L106 (Becton Dickinson, catalog number 340420)”, the percent reduction of binding in assay [1] and in assay [4] was 10% throughout. Moreover, the percent inhibition of OX40L binding turned out to be 95% in assay [2] and 60% in assay [7]. The IC50 in assay [3] stood at 0.982 µg/mL; in assay [5], 60.9 µg/mL. Also, the BMAX Geo Mean (geometric mean fluorescence) in assay [6] was 52. For the same substance, the Kd in assay [6] turned out to be 1 nM.
